Experimental findings from publication PMC10256740 are described below.

In test [1] the target is FLAG-tagged BicD2-Kif1bα tail fusion (mouse) (UniProt Q60575). The test is described as follows: centrosome recruitment assay with BicD2-kinesin tail fusions (relocalisation in cells, microscopy); N2A cells transfected with FLAG-BicD2-KIF tail fusion and EGFP-tagged RBP (2:3), fixed after 24 h, anti-FLAG staining; read-out log2 of the mean EGFP intensity at the centrosome over the mean intensity in the whole cell.

Test [2] concerns the target FLAG-tagged BicD2-Kif1c tail fusion (mouse) (UniProt O35071). The description is as above.

FLAG-tagged BicD2-Kif1bα tail fusion (mouse), sequence (Q60575 other isoform, or with tags, fused parts or gaps): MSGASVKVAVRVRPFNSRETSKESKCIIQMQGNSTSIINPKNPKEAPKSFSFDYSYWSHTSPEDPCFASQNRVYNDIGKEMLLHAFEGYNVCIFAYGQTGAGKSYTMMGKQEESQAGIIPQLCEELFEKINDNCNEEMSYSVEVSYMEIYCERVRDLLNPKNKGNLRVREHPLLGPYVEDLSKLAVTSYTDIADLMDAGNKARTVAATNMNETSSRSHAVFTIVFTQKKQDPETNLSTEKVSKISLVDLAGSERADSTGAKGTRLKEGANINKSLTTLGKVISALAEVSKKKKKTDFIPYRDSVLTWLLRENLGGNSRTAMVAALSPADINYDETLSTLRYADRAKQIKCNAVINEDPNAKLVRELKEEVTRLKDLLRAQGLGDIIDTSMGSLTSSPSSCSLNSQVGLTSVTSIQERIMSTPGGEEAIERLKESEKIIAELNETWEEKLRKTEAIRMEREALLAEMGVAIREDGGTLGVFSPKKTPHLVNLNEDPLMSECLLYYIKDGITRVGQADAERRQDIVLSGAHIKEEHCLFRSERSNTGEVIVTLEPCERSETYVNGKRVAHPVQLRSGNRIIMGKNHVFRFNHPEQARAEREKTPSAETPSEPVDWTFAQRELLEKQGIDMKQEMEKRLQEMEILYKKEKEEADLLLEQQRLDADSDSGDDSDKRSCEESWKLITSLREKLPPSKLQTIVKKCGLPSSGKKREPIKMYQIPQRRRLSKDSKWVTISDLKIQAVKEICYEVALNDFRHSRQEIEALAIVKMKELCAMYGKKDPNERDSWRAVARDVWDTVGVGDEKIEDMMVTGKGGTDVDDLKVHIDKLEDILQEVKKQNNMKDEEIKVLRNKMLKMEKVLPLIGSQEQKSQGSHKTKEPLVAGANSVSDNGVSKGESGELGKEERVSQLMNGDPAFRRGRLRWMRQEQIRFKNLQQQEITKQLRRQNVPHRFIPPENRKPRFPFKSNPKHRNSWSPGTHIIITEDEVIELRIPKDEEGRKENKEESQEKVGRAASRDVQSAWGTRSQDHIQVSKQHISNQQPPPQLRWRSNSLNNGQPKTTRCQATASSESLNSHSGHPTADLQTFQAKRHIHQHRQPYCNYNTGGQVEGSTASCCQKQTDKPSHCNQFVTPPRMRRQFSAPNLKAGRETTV
FLAG-tagged BicD2-Kif1c tail fusion (mouse), sequence (O35071 whole entry, the tested form may be a part): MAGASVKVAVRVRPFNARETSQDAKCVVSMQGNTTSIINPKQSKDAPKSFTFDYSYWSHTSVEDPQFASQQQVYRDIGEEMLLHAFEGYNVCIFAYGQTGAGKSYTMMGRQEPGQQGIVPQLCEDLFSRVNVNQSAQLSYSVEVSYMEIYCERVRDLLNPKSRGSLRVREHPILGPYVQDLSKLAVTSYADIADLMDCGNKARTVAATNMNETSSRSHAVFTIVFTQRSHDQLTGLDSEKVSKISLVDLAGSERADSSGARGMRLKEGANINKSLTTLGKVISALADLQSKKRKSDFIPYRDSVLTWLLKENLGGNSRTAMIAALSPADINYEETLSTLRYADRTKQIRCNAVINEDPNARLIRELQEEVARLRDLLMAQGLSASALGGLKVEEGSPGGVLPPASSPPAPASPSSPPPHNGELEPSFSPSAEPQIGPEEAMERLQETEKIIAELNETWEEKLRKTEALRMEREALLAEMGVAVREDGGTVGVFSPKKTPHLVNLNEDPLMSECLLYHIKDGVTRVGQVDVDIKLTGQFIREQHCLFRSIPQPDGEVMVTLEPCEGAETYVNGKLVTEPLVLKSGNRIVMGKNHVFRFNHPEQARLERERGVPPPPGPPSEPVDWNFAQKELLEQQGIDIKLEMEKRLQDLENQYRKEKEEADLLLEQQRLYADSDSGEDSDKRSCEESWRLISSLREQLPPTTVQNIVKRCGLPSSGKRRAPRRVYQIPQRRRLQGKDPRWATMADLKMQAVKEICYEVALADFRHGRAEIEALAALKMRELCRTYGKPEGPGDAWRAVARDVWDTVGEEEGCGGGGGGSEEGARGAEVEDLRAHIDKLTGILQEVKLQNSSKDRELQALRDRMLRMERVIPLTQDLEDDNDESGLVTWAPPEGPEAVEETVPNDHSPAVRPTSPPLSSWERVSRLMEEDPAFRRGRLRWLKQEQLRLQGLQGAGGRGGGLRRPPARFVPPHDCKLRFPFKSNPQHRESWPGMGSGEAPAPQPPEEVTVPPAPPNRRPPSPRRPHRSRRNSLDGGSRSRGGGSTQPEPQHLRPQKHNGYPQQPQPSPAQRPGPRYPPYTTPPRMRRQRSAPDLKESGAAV

B1: EGFP-Tis11d (natural protein)
chain: MSTTLLSPFYDIDFLCKTEKSLANLNLNNMLDKKAVGTPVAAAPSSSFTPGFLRRHSASNLHALAHPVPSPGSCSPKFPGAPNGGGSSCGPAGGGGLASYGQLKEPSGGSGTALVTKESKFRDRSFSENGERSQHLLHLQQQQKGGSGSQINSTRYKTELCRPFEESGTCKYGEKCQFAHGFHELRSLTRHPKYKTELCRTFHTIGFCPYGPRCHFIHNADERRPAPSGGGGASGDLRAFGARDALHLGFAREPRPKLHHSLSFSGFPSGHHQPPGGLESPLLLDSPTSRTPPPPSSSASSCSSSASSCSSASAASTPSGAPTCCATAAAAALLYGPGGAEDLLSPGAPCASCSSSGANNAFAFGPELSSLITPLAIQTHNFAAAAAAAYYRNQQQGLTGPAPPPAQPPAAPAPPSPPFGFQLPRRLSESPVFDAPPSPPDSLSDRDSYLSGSLSSGSLSGSESPSLDPGRRLPIFSRLSISDD
With B1, the log2 mean centrosome recruitment in test [1] was 1.24 log2; in test [2] it was 1.13 log2.
